This note sets out measurements from IntAct's records for PubMed 25312756.

First the molecules themselves.
B1: Ras-related protein Rab-27A (Homo sapiens), P51159 (parent)
chain: MSDGDYDYLIKFLALGDSGVGKTSVLYQYTDGKFNSKFITTVGIDFREKRVVYRASGPDGATGRGQRIHLQLWDTAGQERFRSLTTAFFRDAMGFLLLFDLTNEQSFLNVRNWISQLQMHAYCENPDIVLCGNKSDLEDQRVVKEEEAIALAEKYGIPYFETSAANGTNISQAIEMLLDLIMKRMERCVDKSWIPEGVVRSNGHASTDQLSEEKEKGACGC
partner: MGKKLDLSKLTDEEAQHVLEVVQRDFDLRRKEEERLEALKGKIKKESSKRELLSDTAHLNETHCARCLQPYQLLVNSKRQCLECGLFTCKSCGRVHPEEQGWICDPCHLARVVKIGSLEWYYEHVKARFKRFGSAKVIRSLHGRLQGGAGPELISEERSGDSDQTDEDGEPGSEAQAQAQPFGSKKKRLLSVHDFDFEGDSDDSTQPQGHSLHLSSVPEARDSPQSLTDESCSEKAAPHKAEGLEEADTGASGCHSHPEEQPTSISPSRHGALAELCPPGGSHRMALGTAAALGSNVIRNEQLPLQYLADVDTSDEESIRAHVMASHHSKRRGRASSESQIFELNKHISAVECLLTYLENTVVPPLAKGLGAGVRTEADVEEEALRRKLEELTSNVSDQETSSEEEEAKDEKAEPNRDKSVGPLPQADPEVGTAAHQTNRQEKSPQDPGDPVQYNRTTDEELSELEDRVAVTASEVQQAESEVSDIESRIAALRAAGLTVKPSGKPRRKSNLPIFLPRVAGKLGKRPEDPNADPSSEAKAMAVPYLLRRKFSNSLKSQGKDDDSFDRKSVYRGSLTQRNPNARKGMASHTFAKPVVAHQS
B2: Ras-related protein Rab-27A (Homo sapiens), P51159 (parent)
chain: B1 chain
partner: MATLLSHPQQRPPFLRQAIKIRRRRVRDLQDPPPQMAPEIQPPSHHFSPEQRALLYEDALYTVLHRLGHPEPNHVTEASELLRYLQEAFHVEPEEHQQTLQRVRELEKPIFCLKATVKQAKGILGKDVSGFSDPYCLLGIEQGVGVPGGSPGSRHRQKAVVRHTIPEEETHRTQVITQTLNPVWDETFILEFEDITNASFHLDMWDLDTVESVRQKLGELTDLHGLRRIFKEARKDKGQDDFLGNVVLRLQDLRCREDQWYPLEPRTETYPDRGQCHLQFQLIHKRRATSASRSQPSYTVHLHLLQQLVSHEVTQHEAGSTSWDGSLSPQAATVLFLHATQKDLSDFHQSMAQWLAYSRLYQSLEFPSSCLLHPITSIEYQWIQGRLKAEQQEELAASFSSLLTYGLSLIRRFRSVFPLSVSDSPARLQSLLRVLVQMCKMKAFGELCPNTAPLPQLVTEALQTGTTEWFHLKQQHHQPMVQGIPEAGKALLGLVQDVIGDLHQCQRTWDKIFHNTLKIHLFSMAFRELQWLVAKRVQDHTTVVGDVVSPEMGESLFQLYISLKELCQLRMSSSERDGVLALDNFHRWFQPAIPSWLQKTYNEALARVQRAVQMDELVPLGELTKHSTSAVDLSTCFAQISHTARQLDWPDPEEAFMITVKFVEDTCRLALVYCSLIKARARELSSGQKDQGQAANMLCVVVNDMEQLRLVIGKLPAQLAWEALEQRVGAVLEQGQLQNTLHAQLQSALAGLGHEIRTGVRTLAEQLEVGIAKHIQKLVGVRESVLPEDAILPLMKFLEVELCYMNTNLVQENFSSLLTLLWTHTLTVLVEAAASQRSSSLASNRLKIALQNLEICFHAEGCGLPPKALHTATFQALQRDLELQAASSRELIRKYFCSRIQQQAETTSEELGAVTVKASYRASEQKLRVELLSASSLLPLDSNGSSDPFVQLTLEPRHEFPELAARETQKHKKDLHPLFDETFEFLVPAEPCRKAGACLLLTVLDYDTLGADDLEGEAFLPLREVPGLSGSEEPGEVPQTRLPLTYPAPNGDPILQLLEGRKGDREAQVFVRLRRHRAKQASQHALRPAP

One assay covers variants of B1. Particulars: with melph_human MLPH.
Regarding A76V, the “effect of a mutation on the interaction” value is reported as “with no effect”.

Regarding Y159C, the “effect of a mutation on the interaction” value is recorded as “with no effect”.

With S163R, the “effect of a mutation on the interaction” value is given as “decreasing interaction strength”.

A further assay covers variants of B2. Particulars: with un13d_human UNC13D.
For the variant Y159C, the “effect of a mutation on the interaction” value is reported as “disrupting interaction strength”.

Consider A76V, for which the “effect of a mutation on the interaction” value is recorded as “decreasing interaction strength”.

S163R: the “effect of a mutation on the interaction” value is reported as “decreasing interaction strength”.
